Several values for one entry are separate records, joined by “and”; a condition that tells them apart may be missing. Equal entries are not always repeated. Values belong to the binder of their own block, whether it stands above or below them.
How the values were obtained:
[1] = target: T1, Human OX40 expressed on the surface of activated human CD4+OX40+ T cells (human, UniProt P43489 29-277); experiment: flow cytometry ligand blocking assay on activated human CD4+OX40+ T cells; competitor biotinylated OX40L (CD252 muCD8) at 2 µg/ml
T1 construct: whole, on cells; Also used as the target for the functional assays on human PBMC (endogenous OX40); also called cell surface OX40; cell-surface expressed OX40
T1 sequence (looked up): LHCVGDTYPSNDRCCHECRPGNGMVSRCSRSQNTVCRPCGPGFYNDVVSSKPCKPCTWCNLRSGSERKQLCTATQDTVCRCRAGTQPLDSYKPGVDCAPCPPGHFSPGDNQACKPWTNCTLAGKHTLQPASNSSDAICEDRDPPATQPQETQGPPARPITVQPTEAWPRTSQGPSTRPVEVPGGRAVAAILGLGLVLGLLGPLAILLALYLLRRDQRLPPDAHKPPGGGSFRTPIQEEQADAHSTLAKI
Protocol: The capacity of A26Fab′-PEG to block the interaction between cell-surface expressed OX40 and recombinant OX40L was measured using a flow cytometry-based ligand blocking assay. Briefly, activated human CD4⁺OX40⁺ T cells were pre-incubated with a titration of A26Fab′-PEG. Recombinant OX40L was subsequently added to the cells and allowed to bind in the presence of A26 Fab′-PEG. The proportion of OX40L bound was then detected by flow cytometry using a labelled secondary reagent.
Methods: Inhibition of OX40L binding to human activated CD4⁺OX40⁺ T Cells by A26Fab′-PEG. PBMC were isolated by separation on a Ficoll gradient and activated with 1 μg/mL PHA-L for 3 days at 37° C., 5% CO₂, 100% humidity. 2.5×10⁵ cells were incubated in the presence of antibody (final concentration range 20 μg/mL-0.0003 μg/mL (229 nM-0.0035 nM)) for 10 minutes on ice. OX40L (biotinylated CD252 muCD8, Ancell) was added at a final concentration of 2 μg/ml and incubated for a further 30 minutes on ice. Cells were washed and OX40L binding detected by incubation with PE-labelled streptavadin (Jackson Immunoresearch) prior to analysis by flow cytometry using a FACScalibur (Becton Dickinson). gA33 Fab′-PEG was used as a non-specific control. The inhibition curve was analysed by non-linear regression (Graphpad Prism®) to determine the IC₅₀. The data shown is from one representative donor of two.

[2] = target: T1, Human OX40 expressed on the surface of …; experiment: cell-based or functional assay
[3] = target: T2, Rhesus OX40 on activated rhesus CD4+ T cells (rhesus, UniProt P16003 26-458); experiment: flow cytometry saturation binding on activated rhesus CD4+ T cells; n = 1
T2 sequence (P16003 26-458): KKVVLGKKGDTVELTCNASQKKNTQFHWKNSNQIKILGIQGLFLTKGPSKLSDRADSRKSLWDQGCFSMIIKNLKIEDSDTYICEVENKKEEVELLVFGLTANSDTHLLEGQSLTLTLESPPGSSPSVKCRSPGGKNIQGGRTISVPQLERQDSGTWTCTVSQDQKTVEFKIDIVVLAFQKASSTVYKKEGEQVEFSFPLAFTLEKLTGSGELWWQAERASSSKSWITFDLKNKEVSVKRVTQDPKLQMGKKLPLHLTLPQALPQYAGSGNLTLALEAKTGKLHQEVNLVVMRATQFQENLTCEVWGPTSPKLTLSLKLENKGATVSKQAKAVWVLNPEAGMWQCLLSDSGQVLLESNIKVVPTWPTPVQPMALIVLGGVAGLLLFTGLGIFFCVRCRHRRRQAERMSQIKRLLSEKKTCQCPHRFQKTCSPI

[4] = target: T1, Human OX40 expressed on the surface of …; experiment: flow cytometry saturation binding on activated human CD4+ T cells; mean, n = 3
Protocol: (§1) PBMC were isolated by separation on a Ficoll gradient and activated with 1 μg/mL PHA-L for 3 days at 37° C., 5% CO₂, 100% humidity. CD4⁺ T cells were isolated by negative selection using magnetic beads (CD4⁺ T cell Isolation Kit II for Human; Miltenyi Biotec). […] The cells were washed prior to analysis by flow cytometry using a FACScalibur (Becton Dickinson). Two titration curves were produced, one with A26Fab′-PEG and a second with gA33 Fab′-PEG as a non-specific binding control. Linear regression analysis was used to subtract non-specific binding and the specific binding curve thus generated was analysed by non-linear regression (Graphpad Prism®) to determine KD.

[5] = target: T3, Human OX40 extracellular (185 aa) domain fused to the murine IgG2a Fc (232 aa) (Ancell No 513-020) (human; murine, UniProt P43489 29-214); experiment: BIAcore 3000 SPR; antibody captured by immobilised anti-human F(ab′)2, human OX40-mFc titrated as analyte
T3 construct: extracellular domain; Bought reagent; also called recombinant OX40; human extracellular domain OX40; not shown: murine IgG2a Fc, 232 aa
T3 sequence (looked up): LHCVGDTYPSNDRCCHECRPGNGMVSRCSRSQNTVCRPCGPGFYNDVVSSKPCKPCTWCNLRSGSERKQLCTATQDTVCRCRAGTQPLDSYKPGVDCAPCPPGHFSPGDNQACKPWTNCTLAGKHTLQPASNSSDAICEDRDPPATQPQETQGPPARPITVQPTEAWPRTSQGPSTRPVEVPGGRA
Protocol: (§2) BIA (Biamolecular Interaction Analysis) was performed using a BIAcore 3000 (BIAcore AB). Affinipure F(ab′)₂ Fragment goat anti-human IgG, F(ab′)₂ fragment specific (Jackson ImmunoResearch) was immobilised on a CM5 Sensor Chip via amine coupling chemistry to a capture level of ≈4000 response units (RUs). HBS-EP buffer (10 mM HEPES pH 7.4, 0.15 M NaCl, 3 mM EDTA, 0.005% Surfactant P20, BIAcore AB) was used as the running buffer with a flow rate of 10 μl/min. A 10 μl injection of Fab′ at 0.5 μg/mL or Fab′-PEG at 50 μg/mL was used for capture by the immobilised anti-human IgG-F(ab′)₂. Human OX40 was titrated over the captured antibody at various concentrations (25 nM to 0.78 nM) at a flow rate of 30 μL/min. The surface was regenerated by a 10 μL injection of 40 mM HCl, followed by a 5 μL injection of 5 mM NaOH at a flowrate of 10 μL/min.
(§3) Background subtraction binding curves were analysed using the BlAevaluation software (version 3.2) following standard procedures. Kinetic parameters were determined from the fitting algorithm.

[6] = target: Cynomolgus OX40 on activated cynomolgus CD4+ T cells (cynomolgus) (UniProt P79185); experiment: flow cytometry equilibrium binding on activated CD4+ T cells, against human cells as reference
[7] = target: T1, Human OX40 expressed on the surface of …; experiment: flow cytometry saturation binding of FITC labelled antibody on activated human CD4+OX40+ T cells; one of 3 donors
Protocol: Binding of FITC labelled A26Fab′-PEG to activated human CD4⁺OX40⁺ T cells was measured by flow cytometry across a 4-log concentration range.
as §1

[8] = target: Cynomolgus OX40 on activated cynomolgus CD4+ T cells (cynomolgus) (UniProt P79185); experiment: flow cytometry saturation binding on activated cynomolgus CD4+ T cells; n = 3
[9] = target: T3, Human OX40 extracellular (185 aa) …; experiment: BIAcore 3000 SPR; antibody captured, human OX40-mFc as analyte; average of 4 determinations
Protocol: as §2, §3

[10] = target: T1, Human OX40 expressed on the surface of …; experiment: cell-based or functional assay; remark: listed apart in the source
[11] = target: T2, Rhesus OX40 on activated rhesus CD4+ T …; experiment: flow cytometry equilibrium binding on activated CD4+ T cells, against human cells as reference
[12] = target: T3, Human OX40 extracellular (185 aa) …; experiment: BIAcore 3000 SPR; antibody captured, human OX40-mFc as analyte; average of 5 determinations
Protocol: as §2, §3

IC50 [1]: 4.1 nM
House Dust Mite - Inhibition of IL-13 production (n = 3), Mean IC50 (nM) [2]: 1.23 nM
House Dust Mite - Inhibition of IL-13 production (n = 3), Mean IC50 (µg/ml) [2]: 0.107 µg/mL
Mixed Lymphocyte Reaction - Inhibition of Proliferation (n = 10), Mean IC50 (nM) [2]: 2.15 nM
Mixed Lymphocyte Reaction - Inhibition of Proliferation (n = 10), Mean IC50 (µg/ml) [2]: 0.188 µg/mL
Kd [3]: 1.2 nM
Kd [4]: 1.11 nM
Kd [5]: 0.0137 to 0.0503 nM
fold drop off in affinity as compared to human [6]: < 2 fold
Kd [7]: 1.19 nM and 1.07 nM and 1.05 nM
Kd [8]: 1.86 nM
Kd [9]: 0.0313 nM
koff [9]: 1.3e-05 s⁻¹
kon [9]: 476000 M⁻¹ s⁻¹
fold drop off in affinity as compared to human [11]: < 2 fold
B1: A26Fab′-PEG (PEGylated A26 Fab′ fragment) (Fab, V domains shown)
VH: EVQLVESGGGLVQPGGSLRLSCAASGFTFTNYGIHWIRQAPGKGLEWVASISPSGGLTYYRDSVKGRFTISRDDAKNSPYLQMNSLRAEDTAVYYCATGGEGIFDYWGQGTLVTVSS
VL: DIQMTQSPSSLSASVGDRVTITCRATQSIYNALAWYQQKPGKAPKLLIYNANTLHTGVPSRFSASGSGTDSTLTISSLQPEDFATYYCQQYYDYPLTFGGGTKVEIKR
modifications: Cys 226 (linear numbering of SEQ ID NO:15): lysyl-maleimide group, each amino group of the lysyl residue linked to a methoxypoly(ethyleneglycol) of about 20,000 Da (total PEG about 40,000 Da)
notes: also called A26Fab′-PEGylated
Tetanus Toxoid - Inhibition of Proliferation (n = 2), Mean IC50 (nM) [2]: 0.845 nM
Tetanus Toxoid - Inhibition of Proliferation (n = 2), Mean IC50 (µg/ml) [2]: 0.0733 µg/mL
IC50 for inhibition of proliferation, Tetanus Toxoid response, donor 1 [10]: 0.58 nM and 0.051 µg/mL
IC50 for inhibition of proliferation, Tetanus Toxoid response, donor 2 [10]: 1.11 nM and 0.097 µg/mL

Kd [5]: 0.019 to 0.0454 nM
Kd [12]: 0.0296 nM
koff [12]: 1.29e-05 s⁻¹
kon [12]: 486000 M⁻¹ s⁻¹
B2: A26 (humanised CA044-00026, graft gL8gH2) Fab′ fragment, unPEGylated (Fab, V domains shown)
VH: B1 VH
VL: B1 VL
notes: Produced in E. coli; the OmpA signal peptide is cleaved off; also called unPEGylated humanised Fab fragment A26

— patent US20100254978A1 (UCB, published 2010)
